Assay results reported in US7960155B1, “Cytochrome p450 monooxygenases and their use for oxidizing organic compounds” (BASF Aktiengesellschaft, priority 1999, dated 2011).

Tests used:
[1] = Activity test for the indole hydroxylation (kinetic parameters); assay type: biochemical; conditions: excess of purified enzyme and high indole concentration for the wild type
Experimental: The indole hydroxylation activity was tested in a solution which contained 8 μl of a 10-500 mM indole solution in DMSO, 850 μl of tris/HCl buffer (0.1 M, pH 8.2) and 0.6 nmol of P450 BM-3 wild type or mutant in a final volume of 1 ml. The mixture was preincubated for 9 min before the reaction was started by addition of 50 μl of an aqueous 1 mM solution of NADPH. The reaction was stopped after 20 sec by addition of 60 μl of 1.2 M KOH. Within 5 to 30 sec (under aerobic conditions), the enzyme products were converted completely into indigo [Δ^2,2′-biindoline]-3,3′-dione) and indirubin ([Δ^2,3′-biindoline]-2′,3-dione). The indigo production was determined by means of its absorption at 670 nm. […] A linear curve was obtained for indigo production in a reaction time of 40 sec using 0.6 nmol of wild type or P450 BM-3 mutant and 0.05 to 5.0 mM of indole. […] The formation of indirubin was neglected in the determination of the kinetic parameters. The NADPH consumption was determined at 340 nm and calculated as described (17) using an extinction coefficient of 6.2 mM^−1 cm^−1.
Pure samples of the wild-type enzyme P450 BM-3 and of the mutants Leu188Gln, Phe87Val, F87L188 and F87L188A74 were used for the determination of the kinetic parameters of indole hydroxylation.

[2] = Production of indigo using isolated enzymes (colour reaction with indole and NADPH); assay type: biochemical
Description: It is known that indigo is accessible from indole by microbial transformation (24-26). None of these microbial systems, however, contained a P450 monooxygenase. According to the invention, the catalytic activity of the pure enzyme for indole was first determined. The mutant F87L188A74 was mixed with indole. No color reaction could be observed. […] By adjustment of the pH of the reaction mixture to a value of approximately 11, 30 sec after addition of NADPH, the blue coloration was visible within a few seconds. […] The blue pigment was extracted using ethyl acetate and analyzed by TLC. The blue pigment again separated into a more rapidly running blue component and into a slower running red component. The Rf values and the absorption spectra were identical to those values of the extracts from the fermentation broth. The F87L188A74 mutant of P450 BM-3 is thus an indole hydroxylase.

B1: WT: wild-type cytochrome P450 monooxygenase BM-3 from Bacillus megaterium (SEQ ID NO:2) (protein, listed as Bacillus megaterium)
chain: TIKEMPQPKTFGELKNLPLLNTDKPVQALMKIADELGEIFKFEAPGRVTRYLSSQRLIKEACDESRFDKNLSQALKFVRDFAGDGLFTSWTHEKNWKKAHNILLPSFSQQAMKGYHAMMVDIAVQLVQKWERLNADEHIEVPEDMTRLTLDTIGLCGFNYRFNSFYRDQPHPFITSMVRALDEAMNKLQRANPDDPAYDENKRQFQEDIKVMNDLVDKIIADRKASGEQSDDLLTHMLNGKDPETGEPLDDENIRYQIITFLIAGHETTSGLLSFALYFLVKNPHVLQKAAEEAARVLVDPVPSYKQVKQLKYVGMVLNEALRLWPTAPAFSLYAKEDTVLGGEYPLEKGDELMVLIPQLHRDKTIWGDDVEEFRPERFENPSAIPQHAFKPFGNGQRACIGQQFALHEATLVLGMMLKHFDFEDHTNYELDIKETLTLKPEGFVVKAKSKKIPLGGIPSPSTEQSAKKVRKKAENAHNTPLLVLYGSNMGTAEGTARDLADIAMSKGFAPQVATLDSHAGNLPREGAVLIVTASYNGHPPDNAKQFVDWLDQASADEVKGVRYSVFGCGDKNWATTYQKVPAFIDETLAAKGAENIADRGEADASDDFEGTYEEWREHMWSDVAAYFNLDIENSEDNKSTLSLQFVDSAADMPLAKMHGAFSTNVVASKELQQPGSARSTRHLEIELPKEASYQEGDHLGVIPRNYEGIVNRVTARFGLDASQQIRLEAEEEKLAHLPLAKTVSVEELLQYVELQDPVTRTQLRAMAAKTVCPPHKVELEALLEKQAYKEQVLAKRLTMLELLEKYPACEMKFSEFIALLPSIRPRYYSISSSPRVDEKQASITVSVVSGEAWSGYGEYKGIASNYLAELQEGDTITCFISTPQSEFTLPKDPETPLIMVGPGTGVAPFRGFVQARKQLKEQGQSLGEAHLYFGCRSPHEDYLYQEELENAQSEGIITLHTAFSRMPNQPKTYVQHVMEQDGKKLIELLDQGAHFYICGDGSQMAPAVEATLMKSYADVHQVSEADARLWLQQLEEKGRYAKDVWAG
[1]
  indole oxidation activity (in words): not able to oxidize indole
[2]
  blue pigment formation with pure enzyme, indole and NADPH: always negative
